From the supplement of paper PMC11875167

Test: observed amide hydrogen exchange rate constant kobs (stretched exponential fit, FD-normalized) (s^-1); higher = faster H/D exchange (less protection)
Conditions: pH 3 (pH read); temperature: 20 °C; D2O: 88%
Summary of the method: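 Uptake curves were fitted to a stretched single exponential with β = 0.8, and kobs, the observed exchange rate constant, is the fitted rate. The data came from Jurkat tryptic peptides (LysC/trypsin, carbamidomethylated cysteines) labeled in 88% D2O at pHread 3, 20 °C, then quenched with 0.23% formic acid at 13 times from 18 to 93,600 s in processing triplicates. MS1 uptake from a Q-Exactive HF, analyzed in HDExaminer with no back-exchange correction, was normalized to full-deuteration controls (24 h, 37 °C).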

HQPTAIIAK
observed amide hydrogen exchange rate constant kobs: 0.00045

HSQFIGYPITLYLEK
observed amide hydrogen exchange rate constant kobs: 0.000606

HWPFMVVNDAGRPK
observed amide hydrogen exchange rate constant kobs: 0.00131

HYGGLTGLNK
observed amide hydrogen exchange rate constant kobs: 0.00221

IACLDFSLQK
observed amide hydrogen exchange rate constant kobs: 0.000643

IAIYELLFK
observed amide hydrogen exchange rate constant kobs: 0.000527

IDEPLEGSEDR
observed amide hydrogen exchange rate constant kobs: 0.00298

IDFYFDENPYFENK
observed amide hydrogen exchange rate constant kobs: 0.00186

IDNSQVESGSLEDDWDFLPPKK
observed amide hydrogen exchange rate constant kobs: 0.00156

IDTIEIITDR
observed amide hydrogen exchange rate constant kobs: 0.000965

IEDGNNFGVAVQEK
observed amide hydrogen exchange rate constant kobs: 0.00127

IEDLSQQAQLAAAEK
observed amide hydrogen exchange rate constant kobs: 0.0009

IEDVTPIPSDSTR
observed amide hydrogen exchange rate constant kobs: 0.00154

IEEELGSK
observed amide hydrogen exchange rate constant kobs: 0.00244

IETIEVMEDR
observed amide hydrogen exchange rate constant kobs: 0.00148

IEVIEIMTDR
observed amide hydrogen exchange rate constant kobs: 0.00104

IFGGLDMLAEK
observed amide hydrogen exchange rate constant kobs: 0.00145

IFGVTTLDIVR
observed amide hydrogen exchange rate constant kobs: 0.000765

IFVGGLNPEATEEK
observed amide hydrogen exchange rate constant kobs: 0.00108

IGAEVYHNLK
observed amide hydrogen exchange rate constant kobs: 0.0019

IGEHTPSALAIMENANVLAR
observed amide hydrogen exchange rate constant kobs: 0.000813

IGFPWSEIR
observed amide hydrogen exchange rate constant kobs: 0.000936

IGLFGGAGVGK
observed amide hydrogen exchange rate constant kobs: 0.000762

IGPLGLSPK
observed amide hydrogen exchange rate constant kobs: 0.000838

IHFPLATYAPVISAEK
observed amide hydrogen exchange rate constant kobs: 0.000691

IHPVSTMVK
observed amide hydrogen exchange rate constant kobs: 0.000804

IIAPPERK
observed amide hydrogen exchange rate constant kobs: 0.00142

IIDVVYNASNNELVR
observed amide hydrogen exchange rate constant kobs: 0.00138

IILDLISESPIK
observed amide hydrogen exchange rate constant kobs: 0.000711

IINEPTAAAIAYGLDK
observed amide hydrogen exchange rate constant kobs: 0.000776

IISSIEQK
observed amide hydrogen exchange rate constant kobs: 0.00126

IITLTGPTNAIFK
observed amide hydrogen exchange rate constant kobs: 0.000716

IIWQFIK
observed amide hydrogen exchange rate constant kobs: 0.000404

IKGEHPGLSIGDVAK
observed amide hydrogen exchange rate constant kobs: 0.00174

ILATPPQEDAPSVDIANIR
observed amide hydrogen exchange rate constant kobs: 0.00103

ILDSVGIEADDDRLNK
observed amide hydrogen exchange rate constant kobs: 0.0024

ILEFFGLK
observed amide hydrogen exchange rate constant kobs: 0.00112

ILGLLDAYLK
observed amide hydrogen exchange rate constant kobs: 0.00089

ILQDGGLQVVEK
observed amide hydrogen exchange rate constant kobs: 0.000978

ILTFDQLALDSPK
observed amide hydrogen exchange rate constant kobs: 0.000724

IMATPEQVGK
observed amide hydrogen exchange rate constant kobs: 0.000917

IMNTFSVVPSPK
observed amide hydrogen exchange rate constant kobs: 0.000631

INISEGNCPER
observed amide hydrogen exchange rate constant kobs: 0.000833

IQLINNMLDK
observed amide hydrogen exchange rate constant kobs: 0.00081

IREEYPDR
observed amide hydrogen exchange rate constant kobs: 0.00399

IRYESLTDPSK
observed amide hydrogen exchange rate constant kobs: 0.00212

ISVVSTK
observed amide hydrogen exchange rate constant kobs: 0.000812

ISVYYNEATGGK
observed amide hydrogen exchange rate constant kobs: 0.00138

ITLPVDFVTADKFDENAK
observed amide hydrogen exchange rate constant kobs: 0.0013

IVEMSTSK
observed amide hydrogen exchange rate constant kobs: 0.00206

IWDLEGK
observed amide hydrogen exchange rate constant kobs: 0.00103

IWHHTFYNELR
observed amide hydrogen exchange rate constant kobs: 0.00224

IYVDDGLISLQVK
observed amide hydrogen exchange rate constant kobs: 0.000841

IYVGNLPPDIR
observed amide hydrogen exchange rate constant kobs: 0.00116

IYVLLR
observed amide hydrogen exchange rate constant kobs: 0.000454

KLEAAEER
observed amide hydrogen exchange rate constant kobs: 0.00257

KSDVEAIFSK
observed amide hydrogen exchange rate constant kobs: 0.000898

LAAIAESGVER
observed amide hydrogen exchange rate constant kobs: 0.000919

LAHEVGWK
observed amide hydrogen exchange rate constant kobs: 0.00169

LAMQEFMILPVGAANFR
observed amide hydrogen exchange rate constant kobs: 0.000775

LAPITSDPTEATAVGAVEASFK
observed amide hydrogen exchange rate constant kobs: 0.000899

LAVNMVPFPR
observed amide hydrogen exchange rate constant kobs: 0.000639

LAYINPDLALEEK
observed amide hydrogen exchange rate constant kobs: 0.00137

LDGLVETPTGYIESLPR
observed amide hydrogen exchange rate constant kobs: 0.000897

LDIDSPPITAR
observed amide hydrogen exchange rate constant kobs: 0.00107

LDNLVAILDINR
observed amide hydrogen exchange rate constant kobs: 0.00063

LEEDINSSMTNSTAASRPPVTLR
observed amide hydrogen exchange rate constant kobs: 0.00139

LEEDISSSMTNSTAASRPPVTLR
observed amide hydrogen exchange rate constant kobs: 0.00131

LFFLQVK
observed amide hydrogen exchange rate constant kobs: 0.00042

LFIGGLNTETNEK
observed amide hydrogen exchange rate constant kobs: 0.00144

LFIGGLSFETTDDSLREHFEK
observed amide hydrogen exchange rate constant kobs: 0.00239

LFQECCPHSTDR
observed amide hydrogen exchange rate constant kobs: 0.00299

LFVGGLK
observed amide hydrogen exchange rate constant kobs: 0.000811

LGDVYVNDAFGTAHR
observed amide hydrogen exchange rate constant kobs: 0.00197

LGEMWNNTAADDKQPYEK
observed amide hydrogen exchange rate constant kobs: 0.00171

LGEWVGLCK
observed amide hydrogen exchange rate constant kobs: 0.000773

LGFAGLVQEISFGTTK
observed amide hydrogen exchange rate constant kobs: 0.001

LGGSAVISLEGKPL
observed amide hydrogen exchange rate constant kobs: 0.000716

LGGSLADSYLDEGFLLDK
observed amide hydrogen exchange rate constant kobs: 0.00175

LGIHEDSTNR
observed amide hydrogen exchange rate constant kobs: 0.00441

LHFFMPGFAPLTSR
observed amide hydrogen exchange rate constant kobs: 0.00112

LIAPVAEEEATVPNNK
observed amide hydrogen exchange rate constant kobs: 0.00102

LIDDMVAQVLK
observed amide hydrogen exchange rate constant kobs: 0.000612

LIINSLYK
observed amide hydrogen exchange rate constant kobs: 0.00064

LILPHVDIQLK
observed amide hydrogen exchange rate constant kobs: 0.000852

LISWYDNEFGYSNR
observed amide hydrogen exchange rate constant kobs: 0.00164

LLDVVHPAAK
observed amide hydrogen exchange rate constant kobs: 0.00126

LLEPVLLLGK
observed amide hydrogen exchange rate constant kobs: 0.000574

LLEVEHPAAK
observed amide hydrogen exchange rate constant kobs: 0.00188

LLGELLQDNAK
observed amide hydrogen exchange rate constant kobs: 0.000855

LLIHQSLAGGIIGVK
observed amide hydrogen exchange rate constant kobs: 0.000892

LLLPGELAK
observed amide hydrogen exchange rate constant kobs: 0.000859

LLLPWLEAR
observed amide hydrogen exchange rate constant kobs: 0.00056

LLQDFFNGK
observed amide hydrogen exchange rate constant kobs: 0.00068

LMDVGLIAIR
observed amide hydrogen exchange rate constant kobs: 0.000707

LMGLEALK
observed amide hydrogen exchange rate constant kobs: 0.000548

LMIEMDGTENK
observed amide hydrogen exchange rate constant kobs: 0.00222

LNEHFLNTTDFLDTIK
observed amide hydrogen exchange rate constant kobs: 0.00161

LNGTDPEDVIR
observed amide hydrogen exchange rate constant kobs: 0.00197

LNLVQR
observed amide hydrogen exchange rate constant kobs: 0.000854

LQAALDDEEAGGRPAMEPGNGSLDLGGDSAGR
observed amide hydrogen exchange rate constant kobs: 0.00232

LQAVEVVITHLAPGTK
observed amide hydrogen exchange rate constant kobs: 0.000819

LRQPFFQK
observed amide hydrogen exchange rate constant kobs: 0.00093

LTDCVVMRDPASK
observed amide hydrogen exchange rate constant kobs: 0.000824

LTGMAFR
observed amide hydrogen exchange rate constant kobs: 0.00159

LTLHGLQQYYVK
observed amide hydrogen exchange rate constant kobs: 0.000933

LVIEEAER
observed amide hydrogen exchange rate constant kobs: 0.00116

LVIITAGAR
observed amide hydrogen exchange rate constant kobs: 0.000717

LVILANNCPALR
observed amide hydrogen exchange rate constant kobs: 0.00112

LVINGNPITIFQERDPSK
observed amide hydrogen exchange rate constant kobs: 0.000923

LVKQELK
observed amide hydrogen exchange rate constant kobs: 0.000709

LVLVGDGGTGK
observed amide hydrogen exchange rate constant kobs: 0.000679

LVPGGGATEIELAK
observed amide hydrogen exchange rate constant kobs: 0.00089

LVPVGYGIK
observed amide hydrogen exchange rate constant kobs: 0.000648

LVQAFQFTDK
observed amide hydrogen exchange rate constant kobs: 0.00109

LVQDVANNTNEEAGDGTTTATVLAR
observed amide hydrogen exchange rate constant kobs: 0.00155

LVQGSILK
observed amide hydrogen exchange rate constant kobs: 0.000721

LWDLTTGTTTR
observed amide hydrogen exchange rate constant kobs: 0.00172

LYQSAGGMPGGMPGGFPGGGAPPSGGASSGPTIEEVD
observed amide hydrogen exchange rate constant kobs: 0.00113

MFVGGLSWDTSK
observed amide hydrogen exchange rate constant kobs: 0.00136

MFVLDEADEMLSR
observed amide hydrogen exchange rate constant kobs: 0.00164

MGANSLER
observed amide hydrogen exchange rate constant kobs: 0.00212

MINTDLSR
observed amide hydrogen exchange rate constant kobs: 0.000886

MLVSGAGDIK
observed amide hydrogen exchange rate constant kobs: 0.00135

MTDQEAIQDLWQWR
observed amide hydrogen exchange rate constant kobs: 0.000842

MVLVGDVK
observed amide hydrogen exchange rate constant kobs: 0.000602

MVNHFIAEFK
observed amide hydrogen exchange rate constant kobs: 0.00114

MVVESAYEVIK
observed amide hydrogen exchange rate constant kobs: 0.000759

NDLAVVDVR
observed amide hydrogen exchange rate constant kobs: 0.000939

NFAFLEFR
observed amide hydrogen exchange rate constant kobs: 0.00106

NFSDNQLQEGK
observed amide hydrogen exchange rate constant kobs: 0.00213

NIEDVIAQGIGK
observed amide hydrogen exchange rate constant kobs: 0.00103

NIGVDNPAAK
observed amide hydrogen exchange rate constant kobs: 0.0014

NIIHGSDSVESAEK
observed amide hydrogen exchange rate constant kobs: 0.00215

NIPGITLLNVSK
observed amide hydrogen exchange rate constant kobs: 0.000585

NLDIERPTYTNLNR
observed amide hydrogen exchange rate constant kobs: 0.00136

NLLSVAYK
observed amide hydrogen exchange rate constant kobs: 0.00119

NLPFDFTWK
observed amide hydrogen exchange rate constant kobs: 0.00101

NLPLPPPPPPR
observed amide hydrogen exchange rate constant kobs: 0.00144

NMGGPYGGGNYGPGGSGGSGGYGGR
observed amide hydrogen exchange rate constant kobs: 0.00223

NNQFQALLQYADPVSAQHAK
observed amide hydrogen exchange rate constant kobs: 0.000863

NNQITNNQR
observed amide hydrogen exchange rate constant kobs: 0.00134

NPDDITNEEYGEFYK
observed amide hydrogen exchange rate constant kobs: 0.00176

NPDDITQEEYGEFYK
observed amide hydrogen exchange rate constant kobs: 0.00161

NPLPSK
observed amide hydrogen exchange rate constant kobs: 0.000929

NPPGFAFVEFEDPRDAADAVR
observed amide hydrogen exchange rate constant kobs: 0.00134

NQGGYGGSSSSSSYGSGR
observed amide hydrogen exchange rate constant kobs: 0.00275

NQVAMNPTNTVFDAK
observed amide hydrogen exchange rate constant kobs: 0.000774

NVTLPAVFK
observed amide hydrogen exchange rate constant kobs: 0.000481

NWMNSLGVNPR
observed amide hydrogen exchange rate constant kobs: 0.000991

PAAPPAPGPGQLTLR
observed amide hydrogen exchange rate constant kobs: 0.000936

PFEVPFLK
observed amide hydrogen exchange rate constant kobs: 0.000569

PFLNGLTGKPVMVK
observed amide hydrogen exchange rate constant kobs: 0.000606

PFLWLAR
observed amide hydrogen exchange rate constant kobs: 0.000665

PLRLPLQDVYK
observed amide hydrogen exchange rate constant kobs: 0.000685

PMPNPNPNHPSSSGSFSDADLADGVSGGEGK
observed amide hydrogen exchange rate constant kobs: 0.00261

PVGSLAGIGEVLGK
observed amide hydrogen exchange rate constant kobs: 0.00115

PVHHGVNQLK
observed amide hydrogen exchange rate constant kobs: 0.00235
